Reference: patent publication US20090142281A1, “Composition Comprising A Coupled Enzyme System” (priority 2005, published 2009)

What was measured:
[1] = In gel overlay activity assay (PMS/NBT) using sorbitol as substrate; assay type: biochemical; details: native gel
Excerpt: b) In gel overlay activity assay (PMS/NBT) using sorbitol as substrate.
The cell lysates were fractionated on a native gel that was further tested in an in-gel overlay activity assay using sorbitol as the substrate and an assay based on the PMS mediated reduction of NBT. […] The PMS/NBT is a diagnostic assay for flavoproteins where PMS=phenazine methosulfate is a redox mediator which is reduced by reduced FAD.

[2] = cited from earlier work

B1: sorbitol oxidase from Streptomyces species H-7775: sorbitol oxidase of Streptomyces sp. H-7775, SEQ ID NO 1, 420 amino acids (protein)
chain: MTPAEKNWAGNITFGAKRLCVPRSVRELRETVAASGAVRPLGTRHSFNTVADTSGDHVSLAGLPRVVDIDVPGRAVSLSAGLRFGEFAAELHARGLALANLGSLPHISVAGAVATGTHGSGVGNRSLAGAVRALSLVTADGETRTLRRTDEDFAGAVVSLGALGVVTSLELDLVPAFEVRQWVYEDLPEATLAARFDEVMSAAYSVSVFTDWRPGPVGQVWLKQRVGDEGARSVMPAEWLGARLADGPRHPVPGMPAGNCTAQQGVPGPWHERLPHFRMEFTPSNGDELQSEYFVARADAVAAYEALARLRDRIAPVLQVSELRTVAADDLWLSPAHGRDSVAFHFTWVPDAAAVAPVAGAIEEALAPFGARPHWGKVFSTAPEVLRTLYPRYADFEELVGRHDPEGTFRNAFLDRYFRR
modifications: Streptomyces sp. H7775
Q: For B1, which “activity towards sorbitol (stained band)” value [1] is on record?
A: has activity towards sorbitol

Q: What about the “pH range of stability” value ([2]; 24 hours at 30° C.) of the same molecule?
A: 7.5-10 pH

Q: And the optimum temperature ([2]; at pH 7.5)?
A: 50 °C
